Experimental data taken from PMC3514274, “Recombinant sterol esterase from Ophiostoma piceae: an improved biocatalyst expressed in Pichia pastoris” (Microbial Cell Factories, 2012).

Experiments:
[1] = target: deglycosylated recombinant sterol esterase from Ophiostoma piceae (OPE* treated with Endo H in non-denaturing conditions) (Ophiostoma piceae); test: AUC; sedimentation velocity; purified protein 200 μg/mL in 25 mM sodium phosphate buffer pH 7.0, aqueous solution without detergent
[2] = target: recombinant sterol esterase from Ophiostoma piceae expressed in Pichia pastoris (Ophiostoma piceae); test: as above
[3] = target: recombinant sterol esterase from Ophiostoma piceae expressed in Pichia pastoris (Ophiostoma piceae); test: AUC; sedimentation equilibrium; purified protein 200 μg/mL in 25 mM sodium phosphate buffer pH 7.0, aqueous solution without detergent
[4] = substrate: CCCC(=O)OCC(COC(=O)CCC)OC(=O)CCC; test: pH-stat titration of released fatty acid; assay type: biochemical, Ophiostoma piceae; details: 1 mM Tris-HCl pH 7.0, 0.15 M NaCl, 5% (v/v) Genapol X-100, 25°C, substrate emulsified in detergent
Text: (§1) pH-stat titration of released fatty acid on OPE* (recombinant sterol esterase from Ophiostoma piceae)

[5] = substrate: CCCC(=O)O[C@H]1CC[C@@]2(C)C(=CC[C@H]3[C@@H]4CC[C@H]([C@H](C)CCCC(C)C)[C@@]4(C)CC[C@@H]32)C1; test: pH-stat titration of released fatty acid; assay type: biochemical, Ophiostoma piceae; details: 1 mM Tris-HCl pH 7.0, 0.15 M NaCl, 5% (v/v) Genapol X-100, 25°C, substrate emulsified in detergent
Text: as §1

[6] = substrate: CCCCC/C=C\C/C=C\CCCCCCCC(=O)O[C@H]1CC[C@@]2(C)C(=CC[C@H]3[C@@H]4CC[C@H]([C@H](C)CCCC(C)C)[C@@]4(C)CC[C@@H]32)C1; test: pH-stat titration of released fatty acid; assay type: biochemical, Ophiostoma piceae; details: 1 mM Tris-HCl pH 7.0, 0.15 M NaCl, 5% (v/v) Genapol X-100, 25°C, substrate emulsified in detergent
Text: as §1

[7] = substrate: CCCCCCCC/C=C\CCCCCCCC(=O)OCC(COC(=O)CCCCCCC/C=C\CCCCCCCC)OC(=O)CCCCCCC/C=C\CCCCCCCC; test: pH-stat titration of released fatty acid; assay type: biochemical, Ophiostoma piceae; details: 1 mM Tris-HCl pH 7.0, 0.15 M NaCl, 5% (v/v) Genapol X-100, 25°C, substrate emulsified in detergent
Text: as §1

[8] = substrate: CCCCCCCC/C=C\CCCCCCCC(=O)O[C@H]1CC[C@@]2(C)C(=CC[C@H]3[C@@H]4CC[C@H]([C@H](C)CCCC(C)C)[C@@]4(C)CC[C@@H]32)C1; test: pH-stat titration of released fatty acid; assay type: biochemical, Ophiostoma piceae; details: 1 mM Tris-HCl pH 7.0, 0.15 M NaCl, 5% (v/v) Genapol X-100, 25°C, substrate emulsified in detergent
Text: as §1

[9] = substrate: CCCCCCCCCCCCCCCC(=O)Oc1ccc([N+](=O)[O-])cc1; test: purified protein; assay type: biochemical, Ophiostoma piceae; details: 100 mM sodium phosphate pH 7.0, 0.15 M NaCl, 1% (v/v) Genapol X-100, 25°C

Question: How did the stoichiometry N [1] turn out when “deglycosylated recombinant sterol esterase from Ophiostoma piceae (OPE* treated with Endo H in non-denaturing conditions) (enzyme)” was run?
Answer: 2

Question: How did the stoichiometry N [2] turn out when “recombinant sterol esterase from Ophiostoma piceae expressed in Pichia pastoris (enzyme)” was run?
Answer: 2

Question: What about the stoichiometry N [3] of the same molecule?
Answer: 2

B1: OPE* (recombinant sterol esterase from Ophiostoma piceae) (Ophiostoma piceae) (protein)
chain: TTVNVNYPEGEVVGVSVLGIESFRGVPFAQPPVGNLRLKPPVRYTENIGTKDTTGIGPSCPQMYLSTGNGELLFQLVGNLINIPLFQTATLSSEDCLTLNIQRPAGTTSNSSLPVLFWIFGGGFELGTNQYYDGIDLLTEGISLGEPFIFVAINYRVGGFGFLGGKEIKADGSSNLGLLDQRIALEWVADNIASFGGDPSKVTIWGESAGSISVFDQMALYGGNNKYKGKALFRGGIMNSGSVVPAAPVDGVKAQAIYDHVVSEAGCAGTSDTLACLRTVDYTKFLTAVNSVPGIVSYSSIALSYLPRPDGVVLIDSPEEIVKNKQYAAVPMIIGDQEDEGTLFAVLPNNITSTAKIVQYFQDLYFYNATKEQLTAFVNTYPTDITAGSPFNTGIFNELYPGFKRLAAILGDMTFTLARRAFLQLCSEVNPDVPSWSYLASYDYGFPFLGTFHATDILQVFYGVLPNYASGSIQKYYINFVTTGDPNKGAAVDIQWPQWSAKKNILQIYATKAVIVADNFRAKSYEYLYNNIGIFRI
notes: N-terminus (EA)EAYVEF + TTVNVNYPE (6 or 8 extra residues, mixed); monomer/dimer, monomeric in Genapol X-100
Question: Which results are given for B1?
Answer: Km [4]: 5100 ± 300 µM; kcat [4]: 1041 ± 14 s⁻¹; kcat/Km [4]: 204000 M⁻¹ s⁻¹; Km [5]: 1600 ± 200 µM; kcat [5]: 212 ± 7 s⁻¹; kcat/Km [5]: 133000 M⁻¹ s⁻¹; Km [6]: 710 ± 90 µM; kcat [6]: 798 ± 25 s⁻¹; kcat/Km [6]: 1.13e+06 M⁻¹ s⁻¹; Km [7]: 710 ± 90 µM; kcat [7]: 1362 ± 41 s⁻¹; kcat/Km [7]: 1.92e+06 M⁻¹ s⁻¹; Km [8]: 690 ± 100 µM; kcat [8]: 631 ± 21 s⁻¹; kcat/Km [8]: 918000 M⁻¹ s⁻¹; Km [9]: 370 ± 30 µM; kcat [9]: 1049 ± 28 s⁻¹; kcat/Km [9]: 2.88e+06 M⁻¹ s⁻¹
